According to patent US20220339183:

B1: constitutively active p38γ (p38γ^CA; p38γ Asp179Ala), HA-tagged (protein)
chain: MSSPPPARSGFYRQEVTKTAWEVRAVYRDLQPVGSGAYGAVCSAVDGRTGAKVAIKKLYRPFQSELFAKRAYRELRLLKHMRHENVIGLLDVFTPDETLDDFMDFYLVMPFMGTDLGKLMKHEKLGEDRIQFLVYQMLKGLRDLKPGNLAVNEDCELKILDFGLARQAASEMTGYVVTRWYRAPEVILNWMRYTQTVDIWSVGCIMAEMITGKTLFKGSDHLDQLKEIMKVTGTPPAEFVQRLQSDEAKNYMKGLPELEKKDFASILTNASPLAVNLLEKMLVLDAEQRVTAGEALAHPYFESLHDTEDEPQVQKYDDSFDDVDRTLDEWKRVTYKEVLSFKPPRQLGARVSKETPL
B2: endogenous mouse p38γ (protein)
chain: MSSPPPARKGFYRQEVTKTAWEVRAVYQDLQPVGSGAYGAVCSAVDSRTGNKVAIKKLYRPFQSELFAKRAYRELRLLKHMRHENVIGLLDVFTPDESLDDFTDFYLVMPFMGTDLGKLMKHETLSEDRIQFLVYQMLKGLKYIHAAGVIHRDLKPGNLAVNEDCELKILDFGLARQADSEMTGYVVTRWYRAPEVILNWMRYTQTVDIWSVGCIMAEMITGKILFKGNDHLDQLKEIMKITGTPPPEFVQKLQSAEAKNYMEGLPELEKKDFASVLTNASPQAVNLLERMLVLDAEQRVTAAEALTHPYFESLRDTEDEPKAQKYDDSFDDVDRTLEEWKRVTYKEVLSFKPPRQLGARVPKETAL

Target: human non-mutant tau (transgene of Alz17 mice), P10636
Sequence (P10636 whole entry, looked up, change not shown): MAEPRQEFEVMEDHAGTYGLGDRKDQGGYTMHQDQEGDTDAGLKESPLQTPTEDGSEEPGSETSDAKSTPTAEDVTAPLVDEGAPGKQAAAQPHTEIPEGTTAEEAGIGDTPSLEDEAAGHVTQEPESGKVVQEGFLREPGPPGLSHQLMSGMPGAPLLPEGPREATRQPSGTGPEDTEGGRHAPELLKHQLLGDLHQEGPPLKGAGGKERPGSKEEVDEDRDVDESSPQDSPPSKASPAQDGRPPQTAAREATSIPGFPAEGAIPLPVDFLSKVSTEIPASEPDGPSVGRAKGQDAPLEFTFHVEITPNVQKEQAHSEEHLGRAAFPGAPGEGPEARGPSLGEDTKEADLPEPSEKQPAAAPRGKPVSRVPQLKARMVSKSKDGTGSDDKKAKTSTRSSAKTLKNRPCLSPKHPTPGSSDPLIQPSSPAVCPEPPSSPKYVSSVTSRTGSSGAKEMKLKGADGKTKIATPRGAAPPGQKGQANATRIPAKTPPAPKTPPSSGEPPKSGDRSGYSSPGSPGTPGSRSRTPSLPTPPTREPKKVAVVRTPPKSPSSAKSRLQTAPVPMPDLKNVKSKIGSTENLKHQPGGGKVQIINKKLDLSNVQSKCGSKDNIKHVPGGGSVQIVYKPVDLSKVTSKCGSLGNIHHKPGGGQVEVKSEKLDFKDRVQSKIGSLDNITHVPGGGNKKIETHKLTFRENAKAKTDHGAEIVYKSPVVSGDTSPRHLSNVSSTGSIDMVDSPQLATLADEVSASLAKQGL

Row | Protein | Immunofluorescence staining of brains with antibodies to tau and tau phosphorylated at T205 | Western blotting of synaptosome preparations from mouse brains for pT205 tau
1 | B1 | increased T205 tau phosphorylation in Alz17.p38γ^CA mice compared with Alz17 mice | increased phosphorylation of tau at T205 in the post-synapse of Alz17.p38γ^CA mice as compared with Alz17.p38γ^+/+ controls
2 | B2 | – | phosphorylation of tau at T205 was no longer detectable in Alz17.p38γ^-/- mice that also lacked p38γ in their post-synapses
